How the values were obtained:
Type in all cases: biochemical
[1] = HTP-analysis of yeast culture supernatants, no challenge (MUGal hydrolysis); conditions: activity of the variant/activity of Rd3BB (SEQ ID NO: 13), yeast culture supernatant
Procedure, shortened: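 GLA variants were expressed in INVSc1 yeast grown in SD-Ura broth with glucose at 30° C., and culture supernatants were collected after 66-84 h. Supernatant was mixed with McIlvaine buffer pH 4.8 and MUGal (2 mM stock) in 50 mM citrate, 200 mM KCl, pH 4.6, incubated at 37° C. for 30-180 minutes, then quenched with sodium carbonate.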

[2] = HTP-analysis of supernatants pretreated with acid (MUGal hydrolysis); conditions: challenge at pH 4.0; activity of the variant/activity of Rd3BB (SEQ ID NO: 13); yeast culture supernatant
Procedure, shortened: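 MUGal hydrolysis was tracked by fluorescence (Ex 355 nm, Em 448 nm) after a 30-180 min reaction at 37° C. in pH 4.8 McIlvaine/citrate buffer, stopped with 1 M sodium carbonate. Beforehand, yeast (INVSc1) culture supernatants carrying GLA variants were held 1-3 h at 37° C. in acidic McIlvaine buffer, pH 3.3-4.3.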

[3] = HTP-analysis of supernatants pretreated with base (MUGal hydrolysis); conditions: challenge at pH 8.2; activity of the variant/activity of Rd3BB (SEQ ID NO: 13); yeast culture supernatant
Procedure, shortened: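 GLA variants secreted from yeast INVSc1; culture supernatants pre-incubated with McIlvaine buffer pH 7.0–8.2 or 200 mM bicarbonate pH 9.1–9.7 at 37° C. for 1–18 h. Residual activity: MUGal (4 mM stock) hydrolysis at pH 4.3–4.8, 37° C., 30–180 min, carbonate quench; fluorescence Ex 355/Em 448 nm.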

[4] = HTP-analysis of supernatants pretreated with bovine serum (MUGal hydrolysis); conditions: activity of the variant/activity of Rd3BB (SEQ ID NO: 13), yeast culture supernatant
Procedure, shortened: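 Yeast INVSc1 culture supernatants containing secreted GLA variants were mixed with bovine serum (20:80) and held 1 h at 37° C. Serum-treated samples then reacted with MUGal (4 mM stock) in citrate/McIlvaine buffer (pH 4.3/4.8) for 180 min at 37° C., were quenched with sodium carbonate, and read by fluorescence (Ex 355, Em 448 nm).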

B1: 328 (protein)
chain: LDNGLARTPTMGWLHWERFMCNLDCQEEPDSCISEKLFMEMAERMVSEGWKDAGYEYLCIDDCWMAPQRDSEGRLQADPQRFPHGIRQLANYVHSKGLKLGIYADVGNKTCAGFPGSFGYYDIDAQTFADWGVDLLKFDGCYCDSLENLADGYKHMSLALNRTGRSIVYSCEWPLYMWPFQKPNYTEIRQYCNHWRNFADIDDSWASIKSILDWTSRNQERIVDVAGPGGWNDPDMLVIGNFGLSWNQQVTQMALWAIMAAPLFMSNDLRHISPQAKALLQDKDVIAINQDPLGKQGYQLRKGDNFEVWERPLSGLAWAVAIINRQEIGGPRSYTIPVASLGKGVACNPGCFITQLLPVKRKLGFYNWSSRLKSHINPTGTVLLQLENTMQMSLKDLL
modifications: Synthetic Polypeptide sequence of Variant No. 328 of mature Human GLA
- Relative Activity of GLA Variants After No Challenge (NC) [1]: + (+ = 0.5 to 1.5 relative activity over Rd3BB (SEQ ID NO: 13))
- Relative Activity of GLA Variants After Challenge at pH 4.0 [2]: + (+ = 0.5 to 1.5 relative activity over Rd3BB (SEQ ID NO: 13))
- Relative Activity of GLA Variants After Challenge at pH 8.2 [3]: + (+ = 0.5 to 1.5 relative activity over Rd3BB (SEQ ID NO: 13))
- Relative Activity of GLA Variants After Challenge with Serum [4]: + (+ = 0.5 to 1.5 relative activity over Rd3BB (SEQ ID NO: 13))

B2: 334 (protein)
chain: LDNGLARTPTMGWLHWERFMCNLDCQEEPDSCISEKLFMEMAERMVSEGWKDAGYEYLCIDDCWMAPQRDSEGRLQADPQRFPHGIRQLANYVHSKGLKLGIYADVGNKTCAGFPGSFGYYDIDAQTFADWGVDLLKFDGCYCDSLENLADGYKHMSLALNRTGRSIVYSCEWPLYMWPFQKPNYTEIRQYCNHWRNFADIDDSWASIKSILDWTSFNQERIVDVAGPGGWNDPDMLVIGNFGLSWDQQVTQMALWAIMAAPLFMSNDLRHISPQAKALLQDKDVIAINQDPLGKQGYQLRQGDNFEVWERPLSGDAWAVAIINRQEIGGPRSYTIAVASLGKGVACNPGCFITQLLPVKRQLGFYNWSSRLKSHINPTGTVLLQLENTMQMSLKDLL
modifications: Synthetic Polypeptide sequence of Variant No. 334 of mature Human GLA
- Relative Activity of GLA Variants After No Challenge (NC) [1]: + (+ = 0.5 to 1.5 relative activity over Rd3BB (SEQ ID NO: 13))
- Relative Activity of GLA Variants After Challenge at pH 4.0 [2]: ++ (++ = >1.5 to 2.5 relative activity over Rd3BB (SEQ ID NO: 13))
- Relative Activity of GLA Variants After Challenge at pH 8.2 [3]: +++ (+++ = >2.5 relative activity over Rd3BB (SEQ ID NO: 13))
- Relative Activity of GLA Variants After Challenge with Serum [4]: ++ (++ = >1.5 to 2.5 relative activity over Rd3BB (SEQ ID NO: 13))

B3: 330 (protein)
chain: LDNGLARTPTMGWLHWERFMCNLDCQEEPDSCISEKLFMEMAERMVSEGWKDAGYEYLCIDDCWMAPQRDSEGRLQADPQRFPHGIRQLANYVHSKGLKLGIYADVGNKTCAGFPGSFGYYDIDAQTFADWGVDLLKFDGCYCDSLENLADGYKHMSLALNRTGRSIVYSCEWPLYMWPFQKPNYTEIRQYCNHWRNFADIDDSWASVKSILDWTSFNQEKIVDVAGPGGWNDPDMLVIGNFGLSWNQQVTQMALWAIMAAPLFMSNDLRHISPQAKALLQDKDVIAINQDPLGKQGYQLRQGDNFEVWERPLSGLAWAVAIINRQEIGGPRSYTIAVASLGDGVACNPACFITQLLPVKRKLGFYNWTSRLKSHINPTGTVLLQLENTMQMSLKDLL
modifications: Synthetic Polypeptide sequence of Variant No. 330 of mature Human GLA
- Relative Activity of GLA Variants After No Challenge (NC) [1]: ++ (++ = >1.5 to 2.5 relative activity over Rd3BB (SEQ ID NO: 13))
- Relative Activity of GLA Variants After Challenge at pH 4.0 [2]: ++ (++ = >1.5 to 2.5 relative activity over Rd3BB (SEQ ID NO: 13))
- Relative Activity of GLA Variants After Challenge at pH 8.2 [3]: + (+ = 0.5 to 1.5 relative activity over Rd3BB (SEQ ID NO: 13))
- Relative Activity of GLA Variants After Challenge with Serum [4]: + (+ = 0.5 to 1.5 relative activity over Rd3BB (SEQ ID NO: 13))

B4: 331 (protein)
chain: LDNGLARTPTMGWLHWERFMCNLDCQEEPDSCISEKLFMEMAERMVSEGWKDAGYEYLCIDDCWMAPQRDSEGRLQADPQRFPHGIRQLANYVHSKGLKLGIYADVGNKTCAGFPGSFGYYDIDAQTFADWGVDLLKFDGCYCDSLENLADGYKHMSLALNRTGRSIVYSCEWPLYMWPFQKPNYTEIRQYCNHWRNFADIDDSWASVKSILDWTSFNQEKIVDVAGPGGWNDPDMLVIGNFGLSWDQQVTQMALWAIMAAPLFMSNDLRHISPQAKALLQDKDVIAINQDPLGKQGYQLRQGDNFEVWERPLSGLAWAVAIINRQEIGGPRSYTIAVASLGDGVACNPACFITQLLPVKRKLGFYNWTSRLKSHVNPTGTVLLQLENTMQMSLKDLL
modifications: Synthetic Polypeptide sequence of Variant No. 331 of mature Human GLA
- Relative Activity of GLA Variants After No Challenge (NC) [1]: + (+ = 0.5 to 1.5 relative activity over Rd3BB (SEQ ID NO: 13))
- Relative Activity of GLA Variants After Challenge at pH 4.0 [2]: ++ (++ = >1.5 to 2.5 relative activity over Rd3BB (SEQ ID NO: 13))
- Relative Activity of GLA Variants After Challenge at pH 8.2 [3]: ++ (++ = >1.5 to 2.5 relative activity over Rd3BB (SEQ ID NO: 13))
- Relative Activity of GLA Variants After Challenge with Serum [4]: + (+ = 0.5 to 1.5 relative activity over Rd3BB (SEQ ID NO: 13))

B5: 329 (protein)
chain: LDNGLARTPTMGWLHWERFMCNLDCQEEPDSCISEKLFMEMAERMVSEGWKDAGYEYLCIDDCWMAPQRDSEGRLQADPQRFPHGIRQLANYVHSKGLKLGIYADVGNKTCAGFPGSFGYYDIDAQTFADWGVDLLKFDGCYCDSLENLADGYKHMSLALNRTGRSIVYSCEWPLYMWPFQKPNYTEIRQYCNHWRNFADIDDSWASVKSILDWTSFNQERIVDVAGPGGWNDPDMLVIGNFGLSWDQQVTQMALWAIMAAPLFMSNDLRHISPQAKALLQDKDVIAINQDPLGKQGYQLRKGDNFEVWERPLSGLAWAVAIINRQEIGGPRSYTIAVASLGDGVACNPACFITQLLPVKRKLGFYNWTSRLKSHINPTGTVLLQLENTMQMSLKDLL
modifications: Synthetic Polypeptide sequence of Variant No. 329 of mature Human GLA
- Relative Activity of GLA Variants After No Challenge (NC) [1]: + (+ = 0.5 to 1.5 relative activity over Rd3BB (SEQ ID NO: 13))
- Relative Activity of GLA Variants After Challenge at pH 4.0 [2]: ++ (++ = >1.5 to 2.5 relative activity over Rd3BB (SEQ ID NO: 13))
- Relative Activity of GLA Variants After Challenge at pH 8.2 [3]: ++ (++ = >1.5 to 2.5 relative activity over Rd3BB (SEQ ID NO: 13))
- Relative Activity of GLA Variants After Challenge with Serum [4]: ++ (++ = >1.5 to 2.5 relative activity over Rd3BB (SEQ ID NO: 13))

B6: 333 (protein)
chain: LDNGLARTPTMGWLHWERFMCNLDCQEEPDSCISEKLFMEMAERMVSEGWKDAGYEYLCIDDCWMAPQRDSEGRLQADPQRFPHGIRQLANYVHSKGLKLGIYADVGNKTCAGFPGSFGYYDIDAQTFADWGVDLLKFDGCYCDSLENLADGYKHMSLALNRTGRSIVYSCEWPLYMWPFQKPNYTEIRQYCNHWRNFADIDDSWASIKSILDWTSFNQERIVDVAGPGGWNDPDMLVIGNFGLSWNQQVTQMALWAIMAAPLFMSNDLRHISPQAKALLQDKDVIAINQDPLGKQGYQLRQGDNFEVWERPLSGDAWAVAIINRQEIGGPRSYTIPVASLGKGVACNPGCFITQLLPVKRKLGFYNWSSRLKSHINPTGTVLLQLENTMQMSLKDLL
modifications: Synthetic Polypeptide sequence of Variant No. 333 of mature Human GLA
- Relative Activity of GLA Variants After No Challenge (NC) [1]: ++ (++ = >1.5 to 2.5 relative activity over Rd3BB (SEQ ID NO: 13))
- Relative Activity of GLA Variants After Challenge at pH 4.0 [2]: ++ (++ = >1.5 to 2.5 relative activity over Rd3BB (SEQ ID NO: 13))
- Relative Activity of GLA Variants After Challenge at pH 8.2 [3]: ++ (++ = >1.5 to 2.5 relative activity over Rd3BB (SEQ ID NO: 13))
- Relative Activity of GLA Variants After Challenge with Serum [4]: + (+ = 0.5 to 1.5 relative activity over Rd3BB (SEQ ID NO: 13))

B7: 332 (protein)
chain: LDNGLARTPTMGWLHWERFMCNLDCQEEPDSCISEKLFMEMAERMVSEGWKDAGYEYLCIDDCWMAPQRDSEGRLQADPQRFPHGIRQLANYVHSKGLKLGIYADVGNKTCAGFPGSFGYYDIDAQTFADWGVDLLKFDGCYCDSLENLADGYKHMSLALNRTGRSIVYSCEWPLYMWPFQKPNYTEIRQYCNHWRNFADIDDSWASVKSILDWTSFNQETIVDVAGPGGWNDPDMLVIGNFGLSWNQQVTQMALWAIMAAPLFMSNDLRHISPQAKALLQDKDVIAINQDPLGKQGYQLRKGDNFEVWERPLSGLAWAVAIINRQEIGGPRSYTIAVASLGGGVACNPACFITQLLPVKRKLGLYNWTSRLKSHVNPTGTVLLQLENTMQMSLKDLL
modifications: Synthetic Polypeptide sequence of Variant No. 332 of mature Human GLA
- Relative Activity of GLA Variants After No Challenge (NC) [1]: + (+ = 0.5 to 1.5 relative activity over Rd3BB (SEQ ID NO: 13))
- Relative Activity of GLA Variants After Challenge at pH 4.0 [2]: + (+ = 0.5 to 1.5 relative activity over Rd3BB (SEQ ID NO: 13))
- Relative Activity of GLA Variants After Challenge at pH 8.2 [3]: + (+ = 0.5 to 1.5 relative activity over Rd3BB (SEQ ID NO: 13))
- Relative Activity of GLA Variants After Challenge with Serum [4]: + (+ = 0.5 to 1.5 relative activity over Rd3BB (SEQ ID NO: 13))
